{"source": "patent US20150165065A1", "about": "(AVIDBIOTICS, published 2015)", "binders": {"B1": {"name": "M13 phage pKK104 displaying MICA α3 domain with loop 3 insert 3.2sp (designed binder)", "chain": "TVPPMVNVTRSEASEGNITVTCRASGFYPWNITLSWRQDGVSLSHDTQQWGDVLPDGNGTYQTWVATRISGGSGGGSTSRGDHPRTQSGGSGGGCYMEHSGNHSTHPVPSGK", "notes": "also called 3-3.2sp; not shown: C-terminal portion of M13 gene III protein, fused at codon position 198"}, "B2": {"name": "M13 phage pKK105 displaying MICA α3 domain with loop 3 insert 3.3sp (designed binder)", "chain": "B1 chain with T78R, S79V, R80P, G81R, D82G, H83D, P84S, R85D, T86L, Q87T", "notes": "also called 3-3.3sp; not shown: C-terminal portion of M13 gene III protein, fused at codon position 198"}, "B3": {"name": "M13 phage pKK94 displaying MICA α3 domain with loop 1 insert 3.3 (designed binder)", "chain": "TVPPMVNVTRVPRGDSDLTVTCRASGFYPWNITLSWRQDGVSLSHDTQQWGDVLPDGNGTYQTWVATRICQGEEQRFTCYMEHSGNHSTHPVPSGK", "notes": "also called 1-3.3; not shown: C-terminal portion of M13 gene III protein, fused at codon position 198"}, "B4": {"name": "M13 phage pKK98 displaying MICA α3 domain with loop 1 insert 5.3 (designed binder)", "chain": "B3 chain with R10H, V11L, P12A, S16D, D17L, L18T, T19Y", "notes": "also called 1-5.3; not shown: C-terminal portion of M13 gene III protein, fused at codon position 198"}, "B5": {"name": "M13 phage pKK92 displaying MICA α3 domain with loop 1 insert 3.1 (designed binder)", "chain": "TVPPMVNVTSRGDHPRTQVTCRASGFYPWNITLSWRQDGVSLSHDTQQWGDVLPDGNGTYQTWVATRICQGEEQRFTCYMEHSGNHSTHPVPSGK", "notes": "also called 1-3.1; not shown: C-terminal portion of M13 gene III protein, fused at codon position 198"}, "B6": {"name": "soluble MICA generated from pKK52 (tight loop 1 insert T-3.1) (designed binder)", "chain": "HHHHHHEPHSLRYNLTVLSWDGSVQSGFLTEVHLDGQPFLRCDRQKCRAKPQGQWAEDVLGNKTWDRETRDLTGNGKDLRMTLAHIKDQKEGLHSLQEIRVCEIHEDNSTRSSQHFYYDGELFLSQNLETEEWTMPQSSRAQTLAMNVRNFLKEDAMKTKTHYHAMHADCLQELRRYLKSGVVLRRTVPPMVNTSRGDHPRTQCRASGFYPWNITLSWRQDGVSLSHDTQQWGDVLPDGNGTYQTWVATRICQGEEQRFTCYMEHSGNHSTHPVPSGK", "notes": "From pSW324 (from pKK34: His6, Glu125); secreted by 293T cells; also called 1-T-3.1"}, "B7": {"name": "soluble MICA generated from pKK54 (tight loop 1 insert T-3.3) (designed binder)", "chain": "B6 chain with T194R, S195V, R196P, G197R, D198G, H199D, P200S, R201D, T202L, Q203T", "notes": "From pSW324 (from pKK34: His6, Glu125); secreted by 293T cells; also called 1-T-3.3"}, "B8": {"name": "soluble MICA generated from pKK53 (tight loop 1 insert T-3.5) (designed binder)", "chain": "B6 chain with T194G, H199S, P200L, R201I, T202M, Q203H", "notes": "From pSW324 (from pKK34: His6, Glu125); secreted by 293T cells; also called 1-T-3.5"}, "B9": {"name": "soluble MICA generated from pKK56 (tight loop 1 insert T-5.3) (designed binder)", "chain": "B6 chain with T194H, S195L, R196A, G197R, D198G, H199D, P200D, R201L, Q203Y", "notes": "From pSW324 (from pKK34: His6, Glu125); secreted by 293T cells; also called 1-T-5.3"}, "B10": {"name": "soluble MICA generated from pKK55 (tight loop 1 insert T-5.1) (designed binder)", "chain": "B6 chain with T194V, S195T, H199T, P200F, R201T, T202Q, Q203S", "notes": "From pSW324 (from pKK34: His6, Glu125); secreted by 293T cells; also called 1-T-5.1"}, "B11": {"name": "soluble MICA generated from pKK38 (loop 1 insert 3.3) (designed binder)", "chain": "HHHHHHEPHSLRYNLTVLSWDGSVQSGFLTEVHLDGQPFLRCDRQKCRAKPQGQWAEDVLGNKTWDRETRDLTGNGKDLRMTLAHIKDQKEGLHSLQEIRVCEIHEDNSTRSSQHFYYDGELFLSQNLETEEWTMPQSSRAQTLAMNVRNFLKEDAMKTKTHYHAMHADCLQELRRYLKSGVVLRRTVPPMVNVTRVPRGDSDLTVTCRASGFYPWNITLSWRQDGVSLSHDTQQWGDVLPDGNGTYQTWVATRICQGEEQRFTCYMEHSGNHSTHPVPSGK", "notes": "From pKK34 (His6, Glu125); secreted by 293T cells; also called 1-3.3"}, "B12": {"name": "soluble MICA generated from pKK40 (loop 1 insert 5.1) (designed binder)", "chain": "B11 chain with R196V, V197T, P198R, R199G, G200D, D201T, S202F, D203T, L204Q, T205S", "notes": "From pKK34 (His6, Glu125); secreted by 293T cells; also called 1-5.1"}}, "note": "Residue numbers refer to the chain shown, from its start."}
{"molecular_target": "T1, integrin αVβ5 (UniProt P06756 31-992; P18084 24-719)", "T1 construct": "Coated on the ELISA plate", "T1 sequence (P06756 31-992, chain 1 of 2)": "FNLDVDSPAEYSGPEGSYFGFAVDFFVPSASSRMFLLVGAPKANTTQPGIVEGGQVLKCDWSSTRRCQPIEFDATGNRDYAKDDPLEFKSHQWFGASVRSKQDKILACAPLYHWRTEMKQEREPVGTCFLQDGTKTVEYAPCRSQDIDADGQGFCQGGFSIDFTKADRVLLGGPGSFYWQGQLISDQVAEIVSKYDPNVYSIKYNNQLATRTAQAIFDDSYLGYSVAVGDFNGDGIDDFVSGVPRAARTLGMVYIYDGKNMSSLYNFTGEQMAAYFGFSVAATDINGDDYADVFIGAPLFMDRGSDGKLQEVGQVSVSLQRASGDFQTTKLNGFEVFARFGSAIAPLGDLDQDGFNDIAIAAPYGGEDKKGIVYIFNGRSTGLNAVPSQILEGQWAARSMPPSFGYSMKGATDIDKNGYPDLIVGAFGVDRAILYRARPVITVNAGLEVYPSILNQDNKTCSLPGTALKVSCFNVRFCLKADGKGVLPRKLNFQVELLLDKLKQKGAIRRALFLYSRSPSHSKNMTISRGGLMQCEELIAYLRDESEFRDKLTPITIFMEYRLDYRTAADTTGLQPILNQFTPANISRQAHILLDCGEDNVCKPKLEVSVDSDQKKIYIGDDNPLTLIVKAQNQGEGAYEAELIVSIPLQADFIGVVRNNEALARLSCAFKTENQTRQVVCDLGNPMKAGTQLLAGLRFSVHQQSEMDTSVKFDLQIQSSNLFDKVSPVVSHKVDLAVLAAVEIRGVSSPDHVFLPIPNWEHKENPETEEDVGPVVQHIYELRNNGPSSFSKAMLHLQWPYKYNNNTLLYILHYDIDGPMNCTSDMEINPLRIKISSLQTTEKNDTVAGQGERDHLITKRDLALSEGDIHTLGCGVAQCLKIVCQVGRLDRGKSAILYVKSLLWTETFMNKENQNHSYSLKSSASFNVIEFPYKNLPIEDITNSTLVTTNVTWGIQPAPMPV", "T1 sequence (P18084 24-719, chain 2 of 2)": "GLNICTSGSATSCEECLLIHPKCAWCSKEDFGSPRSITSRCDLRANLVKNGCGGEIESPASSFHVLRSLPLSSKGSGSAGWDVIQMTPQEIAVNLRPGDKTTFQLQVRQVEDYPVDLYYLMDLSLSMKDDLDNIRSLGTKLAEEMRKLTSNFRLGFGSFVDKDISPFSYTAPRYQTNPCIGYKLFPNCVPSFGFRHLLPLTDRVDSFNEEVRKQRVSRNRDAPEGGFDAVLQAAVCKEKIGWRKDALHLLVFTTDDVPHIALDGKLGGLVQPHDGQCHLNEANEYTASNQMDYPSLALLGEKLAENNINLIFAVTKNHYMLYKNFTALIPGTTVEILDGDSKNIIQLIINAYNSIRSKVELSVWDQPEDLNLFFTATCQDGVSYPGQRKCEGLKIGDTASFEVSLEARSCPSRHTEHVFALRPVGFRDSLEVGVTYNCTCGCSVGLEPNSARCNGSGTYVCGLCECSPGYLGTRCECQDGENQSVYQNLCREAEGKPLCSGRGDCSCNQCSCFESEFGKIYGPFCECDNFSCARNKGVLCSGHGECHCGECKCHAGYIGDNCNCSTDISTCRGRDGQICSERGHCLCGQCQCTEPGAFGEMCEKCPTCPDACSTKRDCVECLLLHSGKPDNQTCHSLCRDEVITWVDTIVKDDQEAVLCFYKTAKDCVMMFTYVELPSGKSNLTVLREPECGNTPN", "assay": "phage ELISA, coated integrin, anti-M13-HRP", "description": "(§1) The phage vectors were independently transformed into NEBαF′tet competent E. coli cells. Phages produced by the transformed cells were tittered and their concentrations adjusted by dilution to 10¹³ per ml. The ability of the soluble MICA molecules in each of the phage preparations was assayed by an ELISA using the intended target proteins, integrin αVβ3 or αVβ5, as capture agents on the ELISA plate. After the respective integrins were adhered to the bottoms of the wells of the ELISA plate, the wells were washed and blocked, as well known in the field. Each sample (100 μl) of phage preparation was added to wells containing αVβ3 or αVβ5, incubated and washed. The phages captured by the integrins were detected by HRP-conjugated antibody to the M13 phage coat developed with Ultra TMB-ELISA substrate and the optical densities read.", "units": {"αvβ5 signal": "OD"}}
{"binder": "B1", "αvβ5 signal": 1.12}
{"binder": "B2", "αvβ5 signal": 1.11}
{"binder": "B3", "αvβ5 signal": 2.84}
{"binder": "B4", "αvβ5 signal": 1.48}
{"binder": "B5", "αvβ5 signal": 1.32}
{"molecular_target": "T2, integrin αVβ3 (UniProt P06756 31-992; P05106 27-718)", "T2 construct": "Coated on the ELISA plate", "T2 sequence (P06756 31-992, chain 1 of 2)": "as the sequence (P06756 31-992, chain 1 of 2) above", "T2 sequence (P05106 27-718, chain 2 of 2)": "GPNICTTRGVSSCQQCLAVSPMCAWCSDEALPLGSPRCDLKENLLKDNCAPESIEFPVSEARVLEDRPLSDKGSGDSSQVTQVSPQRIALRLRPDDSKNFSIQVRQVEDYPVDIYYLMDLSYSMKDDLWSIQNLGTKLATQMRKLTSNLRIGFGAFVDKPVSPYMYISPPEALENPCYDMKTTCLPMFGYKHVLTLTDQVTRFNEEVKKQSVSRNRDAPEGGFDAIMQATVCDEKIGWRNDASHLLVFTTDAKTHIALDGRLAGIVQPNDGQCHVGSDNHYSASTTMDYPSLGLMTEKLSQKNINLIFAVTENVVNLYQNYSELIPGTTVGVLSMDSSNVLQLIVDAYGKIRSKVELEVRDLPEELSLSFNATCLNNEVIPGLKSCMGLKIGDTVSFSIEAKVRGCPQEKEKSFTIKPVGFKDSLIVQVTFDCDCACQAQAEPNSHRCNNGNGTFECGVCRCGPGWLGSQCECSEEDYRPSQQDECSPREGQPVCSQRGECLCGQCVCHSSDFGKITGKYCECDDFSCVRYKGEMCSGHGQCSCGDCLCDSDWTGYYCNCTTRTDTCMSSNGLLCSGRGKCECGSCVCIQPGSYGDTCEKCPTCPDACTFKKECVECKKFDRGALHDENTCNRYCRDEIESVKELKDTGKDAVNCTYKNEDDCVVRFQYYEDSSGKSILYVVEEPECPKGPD", "assay": "phage ELISA, coated integrin, anti-M13-HRP", "description": "as §1", "units": {"αvβ3 signal": "OD"}}
{"binder": "B1", "αvβ3 signal": 0.791}
{"binder": "B2", "αvβ3 signal": 1.33}
{"binder": "B3", "αvβ3 signal": 1.07}
{"binder": "B4", "αvβ3 signal": 1.22}
{"binder": "B5", "αvβ3 signal": 0.858}
{"molecular_target": "T1, integrin αVβ5", "assay": "ELISA, coated integrin, anti-MICA-HRP", "description": "(§2) The ability of the soluble MICA molecules in each of the concentrated supernatants to bind target molecules was assayed by an ELISA using the intended target proteins, integrin αVβ3 or αVβ5, as capture agents on the ELISA plate. After the respective integrins were adhered to the bottoms of the wells of the ELISA plate, the wells were washed and blocked, as well known in the field. Each sample (100 μl) of soluble MICA produced and secreted by 293T cells was added to wells containing αVβ3 or αVβ5, incubated and washed. The soluble MICA molecules captured by the integrins were detected by HRP-conjugated antibody to human MICA developed with Ultra TMB-ELISA substrate and the optical densities read. The quantity of soluble MICA in each sample was determined by the MICA-specific ELISA. […] The ELISA signal from a non-binding, negative control MICA (generated by pSW273) was subtracted from each integrin binding signal.", "units": {"αvβ5 signal": "OD", "αvβ5 signal/ng": "signal/ng MICA"}}
{"binder": "B6", "αvβ5 signal": 0.485, "αvβ5 signal/ng": 12.6}
{"binder": "B7", "αvβ5 signal": 0.175, "αvβ5 signal/ng": 19.3}
{"binder": "B8", "αvβ5 signal": 0.8, "αvβ5 signal/ng": 22.8}
{"binder": "B9", "αvβ5 signal": 0.528, "αvβ5 signal/ng": 18.3}
{"binder": "B10", "αvβ5 signal": 0.588, "αvβ5 signal/ng": 17.4}
{"binder": "B11", "αvβ5 signal": 0.291, "αvβ5 signal/ng": 30.7}
{"binder": "B12", "αvβ5 signal": 0.675, "αvβ5 signal/ng": 27.1}
{"molecular_target": "T2, integrin αVβ3", "assay": "ELISA, coated integrin, anti-MICA-HRP", "description": "as §2", "units": {"αvβ3 signal": "OD", "αvβ3 signal/ng": "signal/ng MICA"}}
{"binder": "B6", "αvβ3 signal": 0.391, "αvβ3 signal/ng": 10.1}
{"binder": "B7", "αvβ3 signal": 0.177, "αvβ3 signal/ng": 19.5}
{"binder": "B8", "αvβ3 signal": 0.659, "αvβ3 signal/ng": 18.7}
{"binder": "B9", "αvβ3 signal": 0.473, "αvβ3 signal/ng": 16.4}
{"binder": "B10", "αvβ3 signal": 0.475, "αvβ3 signal/ng": 14}
{"binder": "B11", "αvβ3 signal": 0.291, "αvβ3 signal/ng": 30.7}
{"binder": "B12", "αvβ3 signal": 0.485, "αvβ3 signal/ng": 19.5}
